From patent US20120316071A1 (published 2012)
Positions count from the first letter of the chain named. Numbers in names are those of the source. Values belong to the binder of their own block, whether it stands above or below them.

Key:
[1] = target: T1, rHuman Erythropoietin R/Fc Chimera, CF (R&D Systems Cat#963-ER) (human, UniProt P19235 25-250); assay: Multispot ECL (MSD) binding screen, antigen spotted on plate; hit = signal/blank >= 4
T1 construct: Bought Fc chimera; also called Epo R/Fc chimera; EPO R/Fc; Fc part of the bought chimera not given
T1 sequence (looked up): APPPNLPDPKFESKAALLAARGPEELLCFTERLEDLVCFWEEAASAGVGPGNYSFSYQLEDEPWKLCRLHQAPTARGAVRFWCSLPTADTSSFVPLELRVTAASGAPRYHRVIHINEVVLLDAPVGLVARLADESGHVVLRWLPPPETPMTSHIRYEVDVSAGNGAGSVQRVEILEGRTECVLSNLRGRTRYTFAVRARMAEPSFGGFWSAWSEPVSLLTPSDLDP

[2] = target: T2, rHuman IGF-1 sR, (IGF-1 sR), CF (R&D Systems Cat#391-GR) (human, UniProt P08069 31-932); assay: ECL multispot (MSD), antigen spotted, 10 nM Fab; blank spot of this row 204
T2 construct: Bought recombinant soluble receptor; also called insulin-like growth factor-1 soluble receptor

[3] = target: T3, rHuman EGF R/Fc Chimera, CF (R&D Systems Cat#344-ER) (human, UniProt P00533 25-645); assay: as above
T3 construct: Bought recombinant protein; also called epidermal growth factor receptor; Fc part of the bought chimera not given

[4] = target: T4, rHuman Erythropoietin R/Fc Chimera, CF (R&D Systems Cat#963-ER) (human, UniProt P19235 25-250); assay: as above
T4 construct: Bought recombinant protein; also called EPO R; EPO R/Fc; Fc part of the bought chimera not given
T4 sequence (looked up): T1 sequence (looked up)

[5] = target: T5, rHuman P-Cadherin/Fc Chimera, CF (R&D Systems Cat#861-PC) (human, UniProt P22223 108-654); assay: as above
T5 construct: Bought recombinant protein; Fc part of the bought chimera not given

[6] = target: T6, rHuman Notch-1/Fc Chimera, CF (R&D Systems Cat#3647-TK) (human, UniProt P46531 19-526); assay: as above
T6 construct: Bought recombinant protein; Fc part of the bought chimera not given

[7] = target: T7, rHuman CD44/Fc Chimera, CF (R&D Systems Cat#3660-CD) (human, UniProt P16070 21-220); assay: as above
T7 construct: Bought recombinant protein; Fc part of the bought chimera not given

[8] = target: T8, rHuman ErbB2/Fc Chimera, CF (R&D Systems Cat#1129-ER) (human, UniProt P04626 23-652); assay: as above
T8 construct: Bought recombinant protein; also called human epidermal growth factor 2 receptor; Fc part of the bought chimera not given

[9] = target: T9, rHuman HGF R/c-MET/Fc Chimera, CF (R&D Systems Cat#358-MT/CF) (human, UniProt P08581 25-932); assay: as above
T9 construct: Bought recombinant protein; also called HGF R/Fc; hepatocyte growth factor receptor; Fc part of the bought chimera not given

[10] = target: T2, rHuman IGF-1 sR, (IGF-1 sR), CF (R&D …); assay: ECL multispot (MSD), antigen spotted, 10 nM Fab; blank spot of this row 239
[11] = target: T3, rHuman EGF R/Fc Chimera, CF (R&D …); assay: as above
[12] = target: T4, rHuman Erythropoietin R/Fc Chimera, CF …; assay: as above
[13] = target: T5, rHuman P-Cadherin/Fc Chimera, CF (R&D …); assay: as above
[14] = target: T6, rHuman Notch-1/Fc Chimera, CF (R&D …); assay: as above
[15] = target: T7, rHuman CD44/Fc Chimera, CF (R&D Systems …); assay: as above
[16] = target: T8, rHuman ErbB2/Fc Chimera, CF (R&D …); assay: as above
[17] = target: T9, rHuman HGF R/c-MET/Fc Chimera, CF (R&D …); assay: as above
[18] = target: T2, rHuman IGF-1 sR, (IGF-1 sR), CF (R&D …); assay: ECL multispot (MSD), antigen spotted, 10 nM Fab; blank spot of this row 271
[19] = target: T3, rHuman EGF R/Fc Chimera, CF (R&D …); assay: as above
[20] = target: T4, rHuman Erythropoietin R/Fc Chimera, CF …; assay: as above
[21] = target: T5, rHuman P-Cadherin/Fc Chimera, CF (R&D …); assay: as above
[22] = target: T6, rHuman Notch-1/Fc Chimera, CF (R&D …); assay: as above
[23] = target: T7, rHuman CD44/Fc Chimera, CF (R&D Systems …); assay: as above
[24] = target: T8, rHuman ErbB2/Fc Chimera, CF (R&D …); assay: as above
[25] = target: T9, rHuman HGF R/c-MET/Fc Chimera, CF (R&D …); assay: as above
[26] = target: T2, rHuman IGF-1 sR, (IGF-1 sR), CF (R&D …); assay: ECL multispot (MSD), antigen spotted, 10 nM Fab; blank spot of this row 248
[27] = target: T3, rHuman EGF R/Fc Chimera, CF (R&D …); assay: as above
[28] = target: T4, rHuman Erythropoietin R/Fc Chimera, CF …; assay: as above
[29] = target: T5, rHuman P-Cadherin/Fc Chimera, CF (R&D …); assay: as above
[30] = target: T6, rHuman Notch-1/Fc Chimera, CF (R&D …); assay: as above
[31] = target: T7, rHuman CD44/Fc Chimera, CF (R&D Systems …); assay: as above
[32] = target: T8, rHuman ErbB2/Fc Chimera, CF (R&D …); assay: as above
[33] = target: T9, rHuman HGF R/c-MET/Fc Chimera, CF (R&D …); assay: as above

T9 sequence (P08581 25-932, change not shown): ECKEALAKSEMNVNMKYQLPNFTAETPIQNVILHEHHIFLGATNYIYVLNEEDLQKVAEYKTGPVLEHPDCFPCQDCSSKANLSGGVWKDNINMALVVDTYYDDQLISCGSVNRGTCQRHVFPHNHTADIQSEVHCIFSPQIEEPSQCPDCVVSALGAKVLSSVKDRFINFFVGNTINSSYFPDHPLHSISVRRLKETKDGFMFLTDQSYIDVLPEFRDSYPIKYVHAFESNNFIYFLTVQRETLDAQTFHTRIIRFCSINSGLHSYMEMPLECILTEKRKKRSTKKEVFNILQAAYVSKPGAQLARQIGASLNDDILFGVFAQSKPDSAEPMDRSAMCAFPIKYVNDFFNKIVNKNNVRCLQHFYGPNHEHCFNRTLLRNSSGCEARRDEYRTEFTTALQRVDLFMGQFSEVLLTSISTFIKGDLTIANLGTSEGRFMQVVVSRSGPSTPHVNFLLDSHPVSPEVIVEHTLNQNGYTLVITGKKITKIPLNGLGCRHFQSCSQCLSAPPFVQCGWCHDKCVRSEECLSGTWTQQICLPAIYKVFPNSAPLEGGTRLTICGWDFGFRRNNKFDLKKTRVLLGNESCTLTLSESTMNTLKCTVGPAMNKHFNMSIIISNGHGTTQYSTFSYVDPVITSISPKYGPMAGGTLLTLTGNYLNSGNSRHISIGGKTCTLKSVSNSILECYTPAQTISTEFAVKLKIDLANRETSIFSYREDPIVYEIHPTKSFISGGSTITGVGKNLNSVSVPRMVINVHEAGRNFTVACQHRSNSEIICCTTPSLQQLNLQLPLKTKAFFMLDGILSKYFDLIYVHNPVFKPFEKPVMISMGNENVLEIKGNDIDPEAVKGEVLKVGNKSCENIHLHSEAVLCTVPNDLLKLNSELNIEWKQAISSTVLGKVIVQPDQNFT

binding result [1]: binds
B1: Fab VH1-46_IGHD7-27*01_IGHJ2*01 & A27_IGKJ1*01 (Fab, V domains shown)
VH: QVQLVQSGAEVKKPGASVKVSCKASGYTFTSYYMHWVRQAPGQGLEWMGIINPSGGSTSYAQKFQGRVTMTRDTSTSTVYMELSSLRSEDTAVYYCARANWGYWYFDLWGRGTLVTVSS
VL: not shown
notes: Fab; expressed in E. coli from Plasmid A (CH1, His6 and Flag tags) and Plasmid C (kappa CL)

ECL signal [2]: 197
ECL signal [3]: 237
ECL signal [4]: 329
ECL signal [5]: 208
ECL signal [6]: 334
ECL signal [7]: 96
ECL signal [8]: 157
ECL signal [9]: 272
ECL signal [10]: 174
ECL signal [11]: 216
ECL signal [12]: 285
ECL signal [13]: 256
ECL signal [14]: 130
ECL signal [15]: 236
ECL signal [16]: 340
ECL signal [17]: 171
ECL signal [18]: 241
ECL signal [19]: 272
ECL signal [20]: 304
ECL signal [21]: 297
ECL signal [22]: 257
ECL signal [23]: 189
ECL signal [24]: 330
ECL signal [25]: 306
B2: Fab VH1-46_IGHD6-6*01_IGHJ1*01 S102A/S103P/S104F (APF) & L6_IGKJ1*01 (Fab, V domains shown)
VH: QVQLVQSGAEVKKPGASVKVSCKASGYTFTSYYMHWVRQAPGQGLEWMGIINPSGGSTSYAQKFQGRVTMTRDTSTSTVYMELSSLRSEDTAVYYCAREEYAPFSAEYFQHWGQGTLVTVSS
VL: not shown
notes: Tested as Fab made in E. coli; The heavy chain was cloned in Plasmid A (CH1 constant region, His6 and Flag tags); The kappa light chain was cloned in Plasmid C (kappa CL); also called APF triple mutant; H:APF & L:wt

ECL signal [26]: 191
ECL signal [27]: 272
ECL signal [28]: 329
ECL signal [29]: 243
ECL signal [30]: 302
ECL signal [31]: 173
ECL signal [32]: 302
ECL signal [33]: 268
B3: Fab VH1-46_IGHD6-6*01_IGHJ1*01 S102A/S103P/S104F G55D & L6_IGKJ1*01 (Fab, V domains shown)
VH: B2 VH with G55D
VL: not shown
notes: Tested as Fab (CH1 with His6 and Flag tags, kappa CL); also called APF G55D
